The target of the test is T1, His-ubiquitin (UniProt P0CG48 1-76).
T1 construct: ubiquitin (monomer); also called recombinant ubiquitin; source: recombinant
The test is described as follows: pull-down; 2 ug Flag-HA-WRNIP1 or Flag-HA-WRNIP1-19R with 2 ug His-ubiquitin; 300 mM KCl, 40 mM Tris-HCl pH 8.0, 100 ug/ml BSA; 30 C for 1 h; captured on anti-HA Sepharose at 4 C; immunoblot against WRNIP1 and ubiquitin. Conditions: both partners purified. (A western blot detects proteins with antibodies after separation by electrophoresis.)

B1: Flag-HA-WRNIP1 (purified from Sf9 cells) (natural protein, human, UniProt Q96S55 1-665, looked up)
chain: MEVSGPEDDPFLSQLHQVQCPVCQQMMPAAHINSHLDRCLLLHPAGHAEPAAGSHRAGERAKGPSPPGAKRRRLSESSALKQPATPTAAESSEGEGEEGDDGGETESRESYDAPPTPSGARLIPDFPVARSSSPGRKGSGKRPAAAAAAGSASPRSWDEAEAQEEEEAVGDGDGDGDADADGEDDPGHWDADAAEAATAFGASGGGRPHPRALAAEEIRQMLQGKPLADTMRPDTLQDYFGQSKAVGQDTLLRSLLETNEIPSLILWGPPGCGKTTLAHIIASNSKKHSIRFVTLSATNAKTNDVRDVIKQAQNEKSFFKRKTILFIDEIHRFNKSQQDTFLPHVECGTITLIGATTENPSFQVNAALLSRCRVIVLEKLPVEAMVTILMRAINSLGIHVLDSSRPTDPLSHSSNSSSEPAMFIEDKAVDTLAYLSDGDARAGLNGLQLAVLARLSSRKMFCKKSGQSYSPSRVLITENDVKEGLQRSHILYDRAGEEHYNCISALHKSMRGSDQNASLYWLARMLEGGEDPLYVARRLVRFASEDIGLADPSALTQAVAAYQGCHFIGMPECEVLLAQCVVYFARAPKSIEVYSAYNNVKACLRNHQGPLPPVPLHLRNAPTRLMKDLGYGKGYKYNPMYSEPVDQEYLPEELRGVDFFKQRRC
notes: WRNIP1, human; Purification as in Liang et al., 2016; also called wild-type WRNIP1; source: Sf9, purified
For B1, the binding result is “binds”.

The record behind these values is article PMC7351111, “WRNIP1 Is Recruited to DNA Interstrand Crosslinks and Promotes Repair” (Cell Reports, 2020).
